From patent US20110223178A1 (Human Genome Sciences, published 2011)
Where a chain is given by its changes, count along the chain named. Blank lines part the entries; values can stand above or below the binder they belong to.

Columns and labels:
Chemokine beta-4 (CK-β4) [1] = target: T1, Chemokine beta-4 (CK-β4) (human, UniProt P78556 27-96, 125I label in the CCR6 membrane binding assay (Example 5)); test: inhibition of 125I-CK-β4 binding to CCR6 membranes by IgG1, Expt 1
T1 construct: also called CCL20; MIP-3α
T1 sequence (P78556 27-96 limits assumed): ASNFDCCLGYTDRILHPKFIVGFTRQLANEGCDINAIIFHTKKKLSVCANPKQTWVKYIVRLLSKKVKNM
Protocol: (§1) The ability of anti-CK-β4 antibodies of the invention to inhibit the binding of CK-β4 to CCR6 may be tested in the following assay. This assay is performed in 96-well plates and each sample is tested in triplicate. A 1:3 serial dilution of anti-CK-β4 antibody is made starting with 200 nM solution of anti-CK-β4 antibody in binding buffer (50 mM HEPES, pH7.0, 5 mM MgCl₂, 1 mM CaCl₂, 0.5% protease free BSA, 0.033% CHAPS, 0.05% Tween 20, 0.05% sodium azide). To fifty microliters of each dilution of antibody are added 25 microliters of CCR6 membranes (40 micrograms/ml in binding buffer; available from Upstate Biotechnology, Charlottesville, Va. Catalog number 50-139M.) Lastly 25 microliters of ¹²⁵I-CK-β4 (0.8 nM in binding buffer) are added to the wells containing the mixture of antibody and membranes, making for a 100 microliter reaction volume. Total binding is measured using 50 microliters of binding buffer in lieu of 50 microliters of antibody dilution.
(§2) The reaction is incubated for 3 hours at room temperature. The plates are harvested in a Tomtec Cell Harvester. The reaction is washed through a filtermat B (Perkin Elmer Life Sciences, Inc. Boston, Mass. product Number 1450-521) presoaked in 0.3% polyethylamine using an ice cold wash buffer (25 mM Hepes, 5 mM MgCl₂, 1 mM CaCl₂, 0.5M NaCl, and 0.05% Tween 20). The filter is then dried and radioactivity bound to the filter is measured using a Wallac MicroBeta Trilux (Perkin Elmer Life Sciences, Inc.).

Chemokine beta-4 (CK-β4) [2] = target: T1, Chemokine beta-4 (CK-β4); test: inhibition of 125I-CK-β4 binding to CCR6 membranes by IgG1, Expt 3
Protocol: as §1, §2

Chemokine beta-4 (CK-β4) [3] = target: T1, Chemokine beta-4 (CK-β4); test: inhibition of 125I-CK-β4 binding to CCR6 membranes by IgG1, Expt 2
Protocol: as §1, §2

B1: IgG1 antibody comprising the VH and VL domains of scFv F002G03 (antibody, V domains shown)
VH: QVQLVQSGAEVKKPGSSVKVSCKASGGTFNRYAISWVRQAPGQGLEWMGGIIPMFATPIYSQKFQDRVTITADESTSTAYMELSSLRSEDTAVYYCARDRTDYYDTDGYQSPDSWGKGTLVTVSS
VL: DIQMTQSPSTLSASIGDRVTITCRASQGINNYLAWYQQKPGRAPKLLIYAASSLQSGVPSRFSGSGSGTDFTLTISSLQPEDFATYYCLQDSDYPLTFGGGTKLEIKR
notes: Whole IgG1
EC50 (Chemokine beta-4 (CK-β4) [1]): 4.1 nM

B2: IgG1 antibody comprising the VH and VL domains of scFv F076C06 (antibody, V domains shown)
VH: QVQLVQSGPEVKKPGSSVKVSCRASGGTFSTYAFSWVRQAPGQGLEWMGGIIPVFETPIYAQKLQGRLTITADTSTDTAYMELSNLRSGDTAVYYCAREWGDYYSSVSSGALHYWGRGTLVTVSS
VL: QAVLTQPSSASGTPGQRVTISCSGSSSNIGNNAVNWYQQLPGTAPKLLIYNNNQWPSGVPDRFSGSKSGTSASLAVSGLQSEDEADYYCAAWDDSLNGYVFGTGTQLTVLS
notes: IgG1
EC50 (Chemokine beta-4 (CK-β4) [2]): 1.8 nM

B3: IgG1 antibody comprising the VH and VL domains of scFv F003F01 (antibody, V domains shown)
VH: EVQLVQSGAEVRKPASSVKVSCKTSGGSFNDYSFNWVRQAPGQGLEWMGSIIPVFDMADYGQNFQGRLTITADESTTTAYMELSDLTPMDTAIYYCARVAMVGATHFDIWGQGTLVTVSS
VL: QSVLTQPPSASGTPGQRVTISCSGGSSNIGSNPVNWYQQVPGTAPKLLIYLSDQRPAGVPDRFSGSKSGTSASLAISGLQSEDEADYYCSTWDDSLNDPVVFGGGTKVTVLG
notes: IgG1; The printed VL start (142) looks late against the printed VL CDR1 (159-171)
EC50 (Chemokine beta-4 (CK-β4) [1]): 0.2 nM
EC50 (Chemokine beta-4 (CK-β4) [2]): 0.13 nM

B5: IgG1 antibody comprising the VH and VL domains of scFv F076G06 (antibody, V domains shown)
VH: QMQLVQSGAEVRKPGSSVKVSCKASGDTFNNFAISWVRQAPGHGLEWVGGIIPVFNTADYAQNFTGRVTISADKATKTVYMELRSLRYDDTAVYFCARTKIELDNDAFDIWGQGTMVTVSS
VL: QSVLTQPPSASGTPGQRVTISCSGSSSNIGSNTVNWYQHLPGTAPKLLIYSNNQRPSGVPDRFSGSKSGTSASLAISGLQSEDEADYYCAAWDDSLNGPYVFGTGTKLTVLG
notes: IgG1
EC50 (Chemokine beta-4 (CK-β4) [2]): 1.7 nM

B7: IgG1 antibody comprising the VH and VL domains of scFv F002C08 (antibody, V domains shown)
VH: EVQLVESGAEVKKPGSSVKVSCKASGGTFSSYAISWVRQAPGQGLEWMGGIIPIFGTANYAQKFQGRVTITADESTSTAYMELSSLGSEDTAVYYCARESLTGDSELDLWGKGTLVTVSS
VL: QSVLTQPPSVSAAPGQKVTISCSGSTSNIGNNYVSWYQQHPGKAPKLMIYDVSKRPSGVPDRFSGSKSGNSASLDISGLQSEDEADYYCAAWDDSLSEFLFGTGTKLTVLG
notes: IgG1
EC50 (Chemokine beta-4 (CK-β4) [2]): 2.2 nM

B9: IgG1 antibody comprising the VH and VL domains of scFv F002D02 (antibody, V domains shown)
VH: EVQLVQSGAEVKKPGSSVKVSCKASGGTFSSYAISWVRQAPGQGLEWMGGIIPIFGTANYAQKFQGRVTITADESTSTAYMELSSLRSEDTAVYYCAREDIVGAVDGFDIWGRGTLVTVSS
VL: B7 VL
notes: IgG1
EC50 (Chemokine beta-4 (CK-β4) [2]): 4.5 nM

B10: IgG1 antibody comprising the VH and VL domains of scFv F076F10 (antibody, V domains shown)
VH: EVQLVQSGAEVKKPGSSVKVFCKTSGGTFSSYAFGWVRQRPGQGLEWMGGIIPNFDAANYAQKFQDTVAFTADTSTNTLYLELSSLTSDDTAVYYCAREVGVHASGLGAFDIWGRGTLVTVSS
VL: QSVLTQPPSVSGAPRQRVTISCSGSSSNIGDNVVNWYQQLPGKAPKLLIYYDDLLPSGVSDRFSGSKSGTSASLAISGLQSEDEADYFCAAWDDSLDAYVFGTRTKVTVLG
notes: Whole IgG1; also called F0076F10
EC50 (Chemokine beta-4 (CK-β4) [3]): 0.49 nM

Other lines, results leading:

EC50 (Chemokine beta-4 (CK-β4) [3]): 2.4 nM
B4: IgG1 antibody comprising the VH and VL domains of scFv F003F09 (antibody, V domains shown)
VH: B5 VH with Q1E, M2V, Q113R, M116T
VL: LPVLTQPPSASGTPGQRVTISCSGSTSNIGSNAVVWYQQLPGAAPKLLIYSNDQRPSGVPDRFSGSRSGTSASLAISGLQSEDEADYYCAAWDDSRDGPWVFGGGTKVTVLG
notes: Whole IgG1

EC50 (Chemokine beta-4 (CK-β4) [1]): 0.3 nM
EC50 (Chemokine beta-4 (CK-β4) [2]): 0.46 nM
B6: IgG1 antibody comprising the VH and VL domains of scFv F003A09 (antibody, V domains shown)
VH: B5 VH with M2V, R12K, P14A, N30S, G66D, Y88S, M116L
VL: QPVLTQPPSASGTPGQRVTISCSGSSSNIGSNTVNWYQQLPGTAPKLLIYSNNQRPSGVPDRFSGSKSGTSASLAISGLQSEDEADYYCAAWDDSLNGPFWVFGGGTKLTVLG
notes: Whole IgG1

EC50 (Chemokine beta-4 (CK-β4) [3]): 0.09 nM
B8: IgG1 antibody comprising the VH and VL domains of scFv F081C09 (antibody, V domains shown)
VH: QVQLVQSGAEVKKPGSSVRVSCKASGGSFSDYAIHWVRQAPGQGLEWMGGIIPIFGTANYAQKFQGRVTITADESTSTAYMELSSLRSEDTAVYYCAREAQYDDAFDIWGQRTMVTVSS
VL: B7 VL
notes: Whole IgG1; also called F0081C09
